# From patent publication US20220106399A1 (IGM BIOSCIENCES, published 2022)
# Experiments:
# [1] = target: T1, Recombinant human CD40-Fc (R&D Systems) (human, UniProt P25942 21-193); test: ELISA, plate coated with 1.6 ng/mL human CD40-Fc, detection with anti-human kappa-HRP; Bmax by one site-specific binding with Hill slope; reference anti-CD40 IgG
# T1 construct: also called CD4O-Fc; not shown: Fc part of the bought fusion protein
# [2] = target: T1, Recombinant human CD40-Fc (R&D Systems); test: ELISA, plate coated with 6.25 ng/mL human CD40-Fc, detection with anti-human kappa-HRP; Bmax by one site-specific binding with Hill slope; reference anti-CD40 IgG
# [3] = target: T1, Recombinant human CD40-Fc (R&D Systems); test: ELISA on coated human CD40-Fc (1.6 and 6.25 ng/mL)
# Description: The binding specificity of anti-CD40 IgM and anti-CD40 IgG were measured in an ELISA assay using two different antigen densities by the following method. […] All subsequent washes used PBS+0.05% Tween and all incubation steps were performed in block buffer (2% BSA in PBS). Plates were washed three times, blocked for one hour, and then washed again. The plates were then incubated for one hour with four-fold dilutions of anti-CD40-IgG and anti-CD40-IgM. After washing, the plates were incubated with a 1:6000 dilution of anti-human kappa-HRP (Southern Biotech #9230-05) in blocking buffer for 1 hour at room temperature. The plates were again washed 5 times, and then incubated with TMB substrate (BD Biosciences #555214) for 20 minutes at room temperature. The reaction was stopped with 1M H₂SO₄ and absorbance at 450 nm was read on a SpectraMax340 plate reader (Molecular Devices) using SoftMax Pro software.
# Bmax was then calculated at each coating density in GraphPad Prism software using One site-Specific binding with Hill slope. […] IgM is thus more sensitive in detecting low CD40 levels than IgG.
# T1 sequence (P25942 21-193 limits assumed): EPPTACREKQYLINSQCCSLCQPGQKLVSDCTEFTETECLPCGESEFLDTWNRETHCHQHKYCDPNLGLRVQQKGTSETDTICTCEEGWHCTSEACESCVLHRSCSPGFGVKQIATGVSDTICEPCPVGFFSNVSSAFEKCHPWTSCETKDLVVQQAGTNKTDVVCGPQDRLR
fold better binding than anti-CD40 IgG (ratio of Bmax) [1] [fold],fold better binding than anti-CD40 IgG (ratio of Bmax) [2] [fold],binding result [3],Binder
~5.5,~2.3,–,"anti-CD40 IgM (antibody, V domains shown) VH: EVQLQQSGPDLVKPGASVKISCKTSGYTFTEYIMHWVKQSHGNSLEWIGGIIPNNGGTSYNQKFKDKATMTVDKSSSTGYMELRSLTSEDSAVYYCTRREVYGRNYYALDYWGQGTLVTVSS VL: DIQMTQTTSSLSASLGDRVTITCSASQGINNYLNWYQQKPDGTVKLLIYYTSSLHSGVPSRFSGSGSGTDYSLTISNLEPEDIATYYCQQYSNLPYTFGGGTKLEIK"
–,–,binds,"anti-CD40 IgG (antibody, V domains shown, detection was with anti-human kappa) VH: EVQLQQSGPDLVKPGASVKISCKTSGYTFTEYIMHWVKQSHGNSLEWIGGIIPNNGGTSYNQKFKDKATMTVDKSSSTGYMELRSLTSEDSAVYYCTRREVYGRNYYALDYWGQGTLVTVSS VL: DIQMTQTTSSLSASLGDRVTITCSASQGINNYLNWYQQKPDGTVKLLIYYTSSLHSGVPSRFSGSGSGTDYSLTISNLEPEDIATYYCQQYSNLPYTFGGGTKLEIK"
